Measurements as given in PMC3958441, “Isl1 and Pou4f2 Form a Complex to Regulate Target Genes in Developing Retinal Ganglion Cells” (PLoS ONE, 2014).

Experiments:
Experiment in all cases: EMSA; EMSA: 20 mM Tris-HCl pH 7.5, 50 mM NaCl, 10 mM DTT, 1 mM EDTA, 5% glycerol, 200 ng dI/dC, 200 ng each protein in 20 ul, 4 C, 30 min; 8% PAGE, 1x TBE, 4 C
Pou4f2D3 = target: T1, Pou4f2D3 (mouse, UniProt Q63934 240-411); conditions: protein: recombinant; tags: His (C-terminal); (radiolabel, Klenow fill-in); 5' overhang 1 nt at both ends before fill-in
T1 sequence: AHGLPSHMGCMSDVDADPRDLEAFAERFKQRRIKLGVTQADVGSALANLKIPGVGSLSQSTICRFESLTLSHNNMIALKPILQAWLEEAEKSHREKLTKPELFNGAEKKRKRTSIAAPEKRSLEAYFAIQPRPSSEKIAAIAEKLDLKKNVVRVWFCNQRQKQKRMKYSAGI

Isl1 = target: T2, Isl1 (mouse, UniProt P61372 1-349); conditions: protein: recombinant; tags: His (C-terminal, pET-28a); (radiolabel, Klenow fill-in); 5' overhang 1 nt at both ends before fill-in
T2 sequence: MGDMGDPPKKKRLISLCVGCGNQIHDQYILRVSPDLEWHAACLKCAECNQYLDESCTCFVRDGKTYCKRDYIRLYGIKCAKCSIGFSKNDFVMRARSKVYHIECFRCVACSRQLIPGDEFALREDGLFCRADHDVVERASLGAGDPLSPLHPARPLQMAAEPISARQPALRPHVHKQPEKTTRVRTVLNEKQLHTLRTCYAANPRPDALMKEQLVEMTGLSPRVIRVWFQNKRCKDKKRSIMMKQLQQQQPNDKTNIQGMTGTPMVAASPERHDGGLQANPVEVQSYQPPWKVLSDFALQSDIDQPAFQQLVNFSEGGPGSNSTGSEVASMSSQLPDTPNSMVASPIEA

Pou4f2D4 = target: T3, Pou4f2D4 (mouse, UniProt Q63934 169-411); conditions: protein: recombinant; tags: His (C-terminal); (radiolabel, Klenow fill-in); 5' overhang 1 nt at both ends before fill-in
T3 sequence: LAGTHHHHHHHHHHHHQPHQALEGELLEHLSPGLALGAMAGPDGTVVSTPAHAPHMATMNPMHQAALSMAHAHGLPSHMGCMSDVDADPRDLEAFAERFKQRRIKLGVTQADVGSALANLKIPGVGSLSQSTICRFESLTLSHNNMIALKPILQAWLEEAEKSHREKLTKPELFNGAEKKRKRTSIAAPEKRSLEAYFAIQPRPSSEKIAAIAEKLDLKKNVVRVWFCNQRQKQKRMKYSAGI

Pou4f2D5 = target: T4, Pou4f2D5 (mouse, UniProt Q63934 125-411); conditions: protein: recombinant; tags: His (C-terminal); (radiolabel, Klenow fill-in); 5' overhang 1 nt at both ends before fill-in
T4 sequence: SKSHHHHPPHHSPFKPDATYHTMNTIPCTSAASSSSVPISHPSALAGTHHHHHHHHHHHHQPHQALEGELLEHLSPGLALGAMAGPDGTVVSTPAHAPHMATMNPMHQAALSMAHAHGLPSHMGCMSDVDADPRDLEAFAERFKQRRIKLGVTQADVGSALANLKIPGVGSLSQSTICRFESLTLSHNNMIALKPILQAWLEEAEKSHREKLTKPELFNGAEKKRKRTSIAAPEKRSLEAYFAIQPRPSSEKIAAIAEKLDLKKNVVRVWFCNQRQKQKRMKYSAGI

Pou4f2D1 = target: T5, Pou4f2D1 (mouse, UniProt Q63934 1-260); conditions: protein: recombinant; tags: His (C-terminal); (radiolabel, Klenow fill-in); 5' overhang 1 nt at both ends before fill-in
T5 sequence: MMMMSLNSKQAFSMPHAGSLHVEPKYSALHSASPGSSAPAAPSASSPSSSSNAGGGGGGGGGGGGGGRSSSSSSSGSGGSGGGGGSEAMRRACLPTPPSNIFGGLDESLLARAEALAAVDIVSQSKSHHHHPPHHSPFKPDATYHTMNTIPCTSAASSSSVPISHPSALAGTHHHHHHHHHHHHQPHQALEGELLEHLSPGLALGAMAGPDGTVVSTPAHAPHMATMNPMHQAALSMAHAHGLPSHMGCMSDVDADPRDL

B1: SBRN3(W) (dsDNA)
DNA 1: GCACACGACCCAATGAATTAATAACCGGGCTG
DNA 2: GCAGCCCGGTTATTAATTCATTGGGTCGTGTG
- binding result (Pou4f2D3): binds
- binding result (Isl1): binds
- binding result (Pou4f2D4): binds
- binding result (Pou4f2D5): binds
- binding result (Pou4f2D1): no binding

B2: CBRN3(W) (dsDNA)
DNA 1: GATCTCTCCTGCATAATTAATTACCCCCGGAT
DNA 2: GATCCGGGGGTAATTAATTATGCAGGAGAGAT
- binding result (Pou4f2D3): binds
- binding result (Isl1): binds
- binding result (Pou4f2D4): binds
- binding result (Pou4f2D5): binds
- binding result (Pou4f2D1): no binding
